Experimental data from patent US20220135638A1 (Takeda / Millennium, published 2022).
Numbered stars: 1 amine (or outer) side, 2 acyl side, 3 side chain; on linkers, the order of the positions; unused ones are H or OH. Square brackets hold non-standard residues; d marks the D form. Primed or numbered codes have the meaning given here. Side chains are listed from the residue outwards. Ends that are not written are not given here. * marks the point of attachment. C20 diacid = O=C(O)CCCCCCCCCCCCCCCCCCC(=O)*; C16 diacid = O=C(O)CCCCCCCCCCCCCCC(=O)*; γGlu = O=C(O)[C@H](CCC(=O)[*:2])N[*:1]; Iva = CC[C@](C)(N)C(=O)O; PEG3′ = not defined here; Aib = CC(C)(N)C(=O)O

B1: Compound No. 501 (peptide)
peptide: Y[Aib]EGTFISDYSIALDR[Aib]HQ[Aib]NFVNW[Iva]LAQRPSSGAK([PEG3′-PEG3′-γGlu-Ida])PPS
modifications: ends and bridges not checked
B2: Compound No. 478 (peptide)
peptide: Y[Aib]EGTFISDYSIALDR[Aib]HQ[Aib]NFVNW[Iva]LAQRPSSGAPPK([PEG3′-PEG3′-γGlu-C20 diacid])S
modifications: ends and bridges not checked
B3: Compound No. 499 (peptide)
peptide: Y[Aib]EGTFISDYSIALDR[Aib]HQ[Aib]NFVNW[Iva]LAQRPSSGK([PEG3′-PEG3′-γGlu-C20 diacid])PPPS
modifications: ends and bridges not checked
B4: Compound No. 485 (peptide)
peptide: Y[Aib]EGTFISDYSIALDR[Aib]HQ[Aib]NFVNW[Iva]LAQRK([PEG3′-PEG3′-γGlu-C16 diacid])SSGAPPPS
modifications: ends and bridges not checked
B5: Compound No. 498 (peptide)
peptide: Y[Aib]EGTFISDYSIALDR[Aib]HQ[Aib]NFVNW[Iva]LAQRPSSGK([PEG3′-PEG3′-γGlu-Ida])PPPS
modifications: ends and bridges not checked
B6: Compound No. 488 (peptide)
peptide: Y[Aib]EGTFISDYSIALDR[Aib]HQ[Aib]NFVNW[Iva]LAQRPK([PEG3′-PEG3′-γGlu-C16 diacid])SGAPPPS
modifications: ends and bridges not checked
B7: Compound No. 492 (peptide)
peptide: Y[Aib]EGTFISDYSIALDR[Aib]HQ[Aib]NFVNW[Iva]LAQRPSK([PEG3′-PEG3′-γGlu-Ida])GAPPPS
modifications: ends and bridges not checked
B8: Compound No. 500 (peptide)
peptide: Y[Aib]EGTFISDYSIALDR[Aib]HQ[Aib]NFVNW[Iva]LAQRPSSGAK([PEG3′-PEG3′-γGlu-C16 diacid])PPS
modifications: ends and bridges not checked
B9: Compound No. 470 (peptide)
peptide: Y[Aib]EGTFISDYSIALDR[Aib]HQ[Aib]NFVNW[Iva]LAQRKSSGAPPPS
modifications: not fully specified (residue 31); ends and bridges not checked
B10: Compound No. 497 (peptide)
peptide: Y[Aib]EGTFISDYSIALDR[Aib]HQ[Aib]NFVNW[Iva]LAQRPSSGK([PEG3′-PEG3′-γGlu-C16 diacid])PPPS
modifications: ends and bridges not checked
B11: Compound No. 493 (peptide)
peptide: Y[Aib]EGTFISDYSIALDR[Aib]HQ[Aib]NFVNW[Iva]LAQRPSK([PEG3′-PEG3′-γGlu-C20 diacid])GAPPPS
modifications: ends and bridges not checked
B12: Compound No. 491 (peptide)
peptide: Y[Aib]EGTFISDYSIALDR[Aib]HQ[Aib]NFVNW[Iva]LAQRPSK([PEG3′-PEG3′-γGlu-C16 diacid])GAPPPS
modifications: ends and bridges not checked
B13: Compound No. 481 (peptide)
peptide: Y[Aib]EGTFISDYSIALDR[Aib]HQ[Aib]NFVNW[Iva]LAQRPSSGAPPPK([PEG3′-PEG3′-γGlu-C20 diacid])
modifications: ends and bridges not checked
B14: Compound No. 487 (peptide)
peptide: Y[Aib]EGTFISDYSIALDR[Aib]HQ[Aib]NFVNW[Iva]LAQRK([PEG3′-PEG3′-γGlu-C20 diacid])SSGAPPPS
modifications: ends and bridges not checked
B15: Compound No. 503 (peptide)
peptide: Y[Aib]EGTFISDYSIALDR[Aib]HQ[Aib]NFVNW[Iva]LAQRPSSGAPK([PEG3′-PEG3′-γGlu-C16 diacid])PS
modifications: ends and bridges not checked
B16: Compound No. 489 (peptide)
peptide: Y[Aib]EGTFISDYSIALDR[Aib]HQ[Aib]NFVNW[Iva]LAQRPK([PEG3′-PEG3′-γGlu-Ida])SGAPPPS
modifications: ends and bridges not checked
B17: Compound No. 490 (peptide)
peptide: Y[Aib]EGTFISDYSIALDR[Aib]HQ[Aib]NFVNW[Iva]LAQRPK([PEG3′-PEG3′-γGlu-C20 diacid])SGAPPPS
modifications: ends and bridges not checked
B18: Compound No. 480 (peptide)
peptide: Y[Aib]EGTFISDYSIALDR[Aib]HQ[Aib]NFVNW[Iva]LAQRPSSGAPPPK([PEG3′-PEG3′-γGlu-Ida])
modifications: ends and bridges not checked
B19: Compound No. 504 (peptide)
peptide: Y[Aib]EGTFISDYSIALDR[Aib]HQ[Aib]NFVNW[Iva]LAQRPSSGAPK([PEG3′-PEG3′-γGlu-Ida])PS
modifications: ends and bridges not checked
B20: Compound No. 494 (peptide)
peptide: Y[Aib]EGTFISDYSIALDR[Aib]HQ[Aib]NFVNW[Iva]LAQRPSSK([PEG3′-PEG3′-γGlu-C16 diacid])APPPS
modifications: ends and bridges not checked
B21: Compound No. 502 (peptide)
peptide: Y[Aib]EGTFISDYSIALDR[Aib]HQ[Aib]NFVNW[Iva]LAQRPSSGAK([PEG3′-PEG3′-γGlu-C20 diacid])PPS
modifications: ends and bridges not checked
B22: Compound No. 479 (peptide)
peptide: Y[Aib]EGTFISDYSIALDR[Aib]HQ[Aib]NFVNW[Iva]LAQRPSSGAPPPK([PEG3′-PEG3′-γGlu-C16 diacid])
modifications: ends and bridges not checked
B23: Compound No. 486 (peptide)
peptide: Y[Aib]EGTFISDYSIALDR[Aib]HQ[Aib]NFVNW[Iva]LAQRK([PEG3′-PEG3′-γGlu-Ida])SSGAPPPS
modifications: ends and bridges not checked
B24: Compound No. 476 (peptide)
peptide: Y[Aib]EGTFISDYSIALDR[Aib]HQ[Aib]NFVNW[Iva]LAQRPSSGAPPK([PEG3′-PEG3′-γGlu-C16 diacid])S
modifications: ends and bridges not checked
B25: Compound No. 495 (peptide)
peptide: Y[Aib]EGTFISDYSIALDR[Aib]HQ[Aib]NFVNW[Iva]LAQRPSSK([PEG3′-PEG3′-γGlu-Ida])APPPS
modifications: ends and bridges not checked
B26: Compound No. 469 (peptide)
peptide: Y[Aib]EGTFISDYSIALDR[Aib]HQ[Aib]NFVNW[Iva]LAQRKSSGAPPPS
modifications: not fully specified (residue 31); ends and bridges not checked
B27: Compound No. 477 (peptide)
peptide: Y[Aib]EGTFISDYSIALDR[Aib]HQ[Aib]NFVNW[Iva]LAQRPSSGAPPK([PEG3′-PEG3′-γGlu-Ida])S
modifications: ends and bridges not checked
B28: Compound No. 496 (peptide)
peptide: Y[Aib]EGTFISDYSIALDR[Aib]HQ[Aib]NFVNW[Iva]LAQRPSSK([PEG3′-PEG3′-γGlu-C20 diacid])APPPS
modifications: ends and bridges not checked

Biological target: T1, full-length human GIPR (GenBank NM_000164) with an N-terminal FLAG tag on HEK-293T cells (human), P48546
T1 chain: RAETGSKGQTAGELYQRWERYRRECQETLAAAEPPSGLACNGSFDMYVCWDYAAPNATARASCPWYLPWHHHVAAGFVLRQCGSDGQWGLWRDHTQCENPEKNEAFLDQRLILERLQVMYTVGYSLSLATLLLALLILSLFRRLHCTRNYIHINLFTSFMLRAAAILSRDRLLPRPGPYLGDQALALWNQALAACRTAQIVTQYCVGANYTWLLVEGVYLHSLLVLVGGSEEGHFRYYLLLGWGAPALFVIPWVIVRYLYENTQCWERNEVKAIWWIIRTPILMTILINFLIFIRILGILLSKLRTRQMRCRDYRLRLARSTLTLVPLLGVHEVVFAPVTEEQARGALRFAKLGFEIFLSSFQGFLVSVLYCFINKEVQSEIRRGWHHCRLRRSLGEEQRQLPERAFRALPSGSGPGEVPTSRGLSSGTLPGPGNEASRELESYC
Test: cell-based or functional assay

Binder | GIP EC50(pM)
B1 | 0.92 pM
B2 | 1.36 pM
B3 | 1.17 pM
B4 | 0.28 pM
B5 | 0.6 pM
B6 | 0.75 pM
B7 | 1.22 pM
B8 | 0.59 pM
B9 | 1.12 pM
B10 | 0.4 pM
B11 | 1.22 pM
B12 | 0.7 pM
B13 | 0.61 pM
B14 | 1.38 pM
B15 | 0.49 pM
B16 | 0.96 pM
B17 | 1.88 pM
B18 | 0.5 pM
B19 | 1.08 pM
B20 | 0.5 pM
B21 | 1.78 pM
B22 | 0.42 pM
B23 | 0.7 pM
B24 | 0.74 pM
B25 | 0.86 pM
B26 | 0.62 pM
B27 | 0.64 pM
B28 | 1.09 pM

Biological target: T2, full-length human GLP-1R (GenBank NM_002062) with an N-terminal FLAG tag on HEK-293T cells (human), P43220
T2 chain: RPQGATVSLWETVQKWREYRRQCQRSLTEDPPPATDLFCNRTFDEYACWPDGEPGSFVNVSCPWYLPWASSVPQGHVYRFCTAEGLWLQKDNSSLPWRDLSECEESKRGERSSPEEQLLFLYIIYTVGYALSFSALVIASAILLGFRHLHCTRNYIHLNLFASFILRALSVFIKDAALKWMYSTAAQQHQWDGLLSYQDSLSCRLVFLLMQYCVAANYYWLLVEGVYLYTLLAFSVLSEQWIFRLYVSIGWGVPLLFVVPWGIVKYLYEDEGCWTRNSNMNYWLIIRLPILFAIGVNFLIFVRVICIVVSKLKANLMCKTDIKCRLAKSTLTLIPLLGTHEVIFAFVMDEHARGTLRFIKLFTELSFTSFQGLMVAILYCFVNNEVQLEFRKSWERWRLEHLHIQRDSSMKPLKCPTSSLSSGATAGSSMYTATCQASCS
Test: cell-based or functional assay

Binder | GLP EC50
B1 | > 1000 nM
B2 | > 1000 nM
B3 | > 1000 nM
B4 | > 1000 nM
B5 | > 1000 nM
B6 | > 1000 nM
B7 | > 1000 nM
B8 | > 1000 nM
B9 | > 1000 nM
B10 | > 1000 nM
B11 | > 1000 nM
B12 | > 1000 nM
B13 | > 1000 nM
B14 | > 1000 nM
B15 | > 1000 nM
B16 | > 1000 nM
B17 | > 1000 nM
B18 | > 1000 nM
B19 | > 1000 nM
B20 | > 1000 nM
B21 | > 1000 nM
B22 | > 1000 nM
B23 | > 1000 nM
B24 | > 1000 nM
B25 | > 1000 nM
B26 | > 1000 nM
B27 | > 1000 nM
B28 | > 1000 nM
